From article PMC4572887, “GnT1IP-L specifically inhibits MGAT1 in the Golgi via its luminal domain” (eLife, 2015) come the findings set out here.

Data set [1] deals with the molecule itself. Briefly: FRET or BRET; COS-7 cells stably expressing GnT1IP-L-mVen, co-transfected with GnT1IP-L-mChe and MGAT1-HA as competitor, with or without 40 µM chloroquine for 4 or 16 hr; FRET efficiency by acceptor bleaching.
Data set [2] concerns the molecule itself. Put plainly: FRET or BRET; acceptor-bleaching FRET microscopy on fixed cells, mVen donor and mChe acceptor; COS-7 cells stably expressing GnT1IP-L-mVen, transiently transfected with the mChe-tagged partner; untreated controls, recovery 4 hr after removal of nocodazole, and 40 µM chloroquine for 4 or 16 hr.
A further data set addresses T1, human MGAT1-mChe (human, UniProt P26572 1-445).
T1 construct: N-acetylglucosaminyltransferase MGAT1, human, full-length cDNA clone; also called GlcNAc-TI; GnT-1; source: COS-7 or Lec1 CHO cells, transiently transfected; in cells; not shown: monomeric mCherry (mChe), C-terminal, kept
T1 sequence (looked up): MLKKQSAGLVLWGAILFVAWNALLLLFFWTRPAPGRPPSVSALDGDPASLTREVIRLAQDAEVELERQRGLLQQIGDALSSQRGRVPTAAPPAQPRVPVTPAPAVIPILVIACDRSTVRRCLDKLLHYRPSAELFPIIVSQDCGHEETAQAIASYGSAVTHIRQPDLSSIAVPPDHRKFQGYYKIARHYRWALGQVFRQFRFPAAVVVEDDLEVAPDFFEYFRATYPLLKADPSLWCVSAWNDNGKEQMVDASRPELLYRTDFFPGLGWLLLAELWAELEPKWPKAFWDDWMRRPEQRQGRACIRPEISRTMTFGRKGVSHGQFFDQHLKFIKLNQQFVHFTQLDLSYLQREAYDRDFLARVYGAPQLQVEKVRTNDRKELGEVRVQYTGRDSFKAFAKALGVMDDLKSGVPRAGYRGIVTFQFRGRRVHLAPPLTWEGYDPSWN
Described as above. Particulars: partners not purified.

B1: Mouse GnT1IP-L-mVen (natural protein, UniProt Q9D4R2-2 1-417, looked up)
chain: MCLGESVGDLRTVATAPWEGEQARGVKDAGSVPVQPGVGSDAATMKAKNVNLLFAFVAVLLFGFSCFCISRMNQTNNQLINCRNHVLEFKEIMLRLKNKSENHHQDLMQVLYQMKRKAAHTTRSSGNFLEKKGSILSQHETLPNQFEVLKYFLPHLRTAGKLYPAIATSKGRAGVSFALGISTINRGNHTYLKQTLTSVLSRMTPEEEEDSVVIVSVADTDESYLKSVVRMVKTKFRKQVQSGVLEVISIPTLFYPQTLLDKKTKTDSESWQIKQVLDFCILMLYAQPKATYYLQLEDDIVAKKMYFTKMKDFVNSLTSKNWFFIEFSVLGFIGKLFRSKDLTDFVHFFLMFYETKPIDILLDDIFLIRVCISGEPVRSCLQRKKGFRIQYRPSLFQHVGTQSSFPGREQHLKDNYY
notes: GnT1IP-L, mouse, the long form of 417 aa (GnT1IP-S with 44 additional N-terminal amino acids), GenBank HM067443; In the homomer FRET experiments the second copy carried C-terminal monomeric mCherry (GnT1IP-L-mChe) instead of mVen; it is written as the same molecule; also called MGAT4D (long form); source: COS-7 or Lec1 CHO cells stably expressing it, or COS-7 cells transiently transfected; in …
As for B1, the “fold increase of homomer FRET with chloroquine, MGAT1-HA co-expressed as competitor” value in data set [1] is roughly 2 fold. Further, the “FRET efficiency (untreated control)” value in data set [2] stood at 32%; with human MGAT1-mChe, 38%.
